According to the supplement of paper PMC7125110:
± gives the standard error. Variants at the floor of the assay were thinned out.

B1: glmS ribozyme (parent)
chain: AUAAAAGCGCCAGAACUACAGAAAUGUAGUUGACGAGGAGGAGGUUUAUCGAAUUUUCGGCGGAUGCCUCCAAA

How the values were obtained:
Conditions in all cases: with glucosamine-6-phosphate
[1] = variants of: B1; assay: self-cleavage kobs at 640 uM GlcN6P; higher = faster cleavage; RNA array
Procedure, shortened: (§1)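 Barcoded ribozyme variants were transcribed in situ on sequenced MiSeq chips by E. coli RNA polymerase. At 37 °C, a hybridised Cy3 probe tracked them while glucosamine-6-phosphate (40 μM to 10 mM) in HEPES/KCl/Mg(OAc)2 buffer flowed in and tiles were imaged over ~14 h. Per-tile medians of signals normalised to baseline and to non-cleaving reference variants were fit to one- or two-exponential decays, giving kobs. kcat and KM came from weighted Michaelis–Menten fits across concentrations.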

[2] = variants of: B1; assay: self-cleavage kobs at 2500 uM GlcN6P; higher = faster cleavage; RNA array
Procedure, shortened: as §1

[3] = variants of: B1; assay: self-cleavage kobs at 10000 uM GlcN6P; higher = faster cleavage; RNA array
Procedure, shortened: as §1

| Variant | self-cleavage kobs at 640 uM GlcN6P [1] | self-cleavage kobs at 2500 uM GlcN6P [2] | self-cleavage kobs at 10000 uM GlcN6P [3] |
| --- | --- | --- | --- |
| A12C C67A C68A | 7.04e-05 ± 1.6e-05 s⁻¹ | 4.41e-05 ± 2.1e-05 s⁻¹ | – |
| G40U G41A A42U U54G G60U C71U | < 1e-05 s⁻¹ | < 1e-05 s⁻¹ | < 1e-05 s⁻¹ |
| G37U G41C G60U | < 1e-05 s⁻¹ | – | – |
| C50G C67G C70U C71A | 0.000149 ± 4.5e-05 s⁻¹ | 0.000157 ± 2.9e-05 s⁻¹ | – |
| A33C G43U G63U | < 1e-05 s⁻¹ | < 1e-05 s⁻¹ | < 1e-05 s⁻¹ |
| G7U A33C U47A | < 1e-05 s⁻¹ | < 1e-05 s⁻¹ | – |
| A6G G59A C67A | < 1e-05 s⁻¹ | < 1e-05 s⁻¹ | – |
| G29U G37U G51C C68U C71G | 4.89e-05 ± 1.7e-05 s⁻¹ | – | – |
| C50G A53U A64G | < 1e-05 s⁻¹ | – | – |
| G9A C68A U69C | < 1e-05 s⁻¹ | – | – |
| C10G A14U | < 1e-05 s⁻¹ | – | < 1e-05 s⁻¹ |
| U30A G40U G60C C61A | < 1e-05 s⁻¹ | < 1e-05 s⁻¹ | – |
| A14U A15G G60U G66A | < 1e-05 s⁻¹ | – | – |
| A6U C50A U65A U69C | 8.83e-05 ± 3.7e-05 s⁻¹ | – | – |
| A14U C68G | 6.11e-05 ± 1.7e-05 s⁻¹ | 3.41e-05 ± 1.3e-05 s⁻¹ | – |
| C16U G43C C71A | < 1e-05 s⁻¹ | < 1e-05 s⁻¹ | – |
| A33U G41U G60C | < 1e-05 s⁻¹ | – | – |
| A15C U30A U31G C34G C67G | 5.05e-05 ± 2.3e-05 s⁻¹ | – | – |
| A36U A53U U65A | < 1e-05 s⁻¹ | < 1e-05 s⁻¹ | – |
| G41A G63U U65G C70U | < 1e-05 s⁻¹ | < 1e-05 s⁻¹ | – |
| G13U G29U A52C | < 1e-05 s⁻¹ | – | – |
| G32C G63A U65A | < 1e-05 s⁻¹ | < 1e-05 s⁻¹ | – |
| G13U U30G G35C | < 1e-05 s⁻¹ | < 1e-05 s⁻¹ | < 1e-05 s⁻¹ |
| G7A C34A G43A G66U U69G | < 1e-05 s⁻¹ | < 1e-05 s⁻¹ | – |
| A6G U30A G41A C68U | < 1e-05 s⁻¹ | – | – |
| G29A U30A A42G A53G | 9.25e-05 ± 2.3e-05 s⁻¹ | – | – |
| A15G G44C G59U | < 1e-05 s⁻¹ | < 1e-05 s⁻¹ | – |
| C8G G32A A39G U54A | < 1e-05 s⁻¹ | < 1e-05 s⁻¹ | – |
| A6C C34A G41C C68A | < 1e-05 s⁻¹ | < 1e-05 s⁻¹ | – |
| A53U U54A U56A C70G | 0.000134 ± 3e-05 s⁻¹ | 8.57e-05 ± 1.9e-05 s⁻¹ | – |
